Source: article PMC7232441 (2020)

T1: CsTx-13 (Cupiennius salei, UniProt P83919)
T1 chain 1: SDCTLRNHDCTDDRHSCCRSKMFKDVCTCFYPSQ
T1 chain 2: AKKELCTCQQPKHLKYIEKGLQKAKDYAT

B1: CsTx-9 (protein)
chain: KDDKNCIPKHHECTNDKKNCCKKGLTKMKCKCFTVADAKGATSERCACDSSLLQKFGFTGLHIIKGLF
B2: CsTx-1 (protein)
chain: SCIPKHEECTNDKHNCCRKGLFKLKCQCSTFDDESGQPTERCACGRPMGHQAIETGLNIFRGLFKGKKKNKKTK

Biological target: T1, CsTx-13
Experiment: microscale thermophoresis

| Binder | Kd |
| --- | --- |
| B1 | 370 nM |
| B2 | 430 nM |
